In assay [1] the target is T1, human CD3ε/δ (ACRO systems, CDD-H52W1) (human, UniProt P07766 23-126; P04234 22-105).
T1 construct: bought recombinant heterodimer; also called human CD3 epsilon/delta; Human CD3ε/CD3δ
The assay is described as follows: BLI, antibody captured on AHC sensor, 30 C. For orientation: Biolayer interferometry detects binding as a change in optical thickness at a sensor tip.

In assay [2] the target is T1, human CD3ε/δ (ACRO systems, CDD-H52W1). The assay is described as follows: serum-stability ELISA, Day 1 vs Day 0.
Experimental: (§1) The samples to be tested were centrifuged at 4° C. at 12000 rpm for 30 minutes to remove the precipitate. 200 μl of each sample to be tested (0.5 mg/ml) was collected in a 1.5 ml Eppendorf tube. An equal volume of human serum (GEMINI, H2OYOOK) was added, mixed thoroughly, and the mixture was incubated in a 37° C. constant temperature CO₂ incubator. For a total of 10 days, 40 μl samples was aspirated every day and stored at −20° C.
(§2) Enzyme-linked immunosorbent assay (ELISA) was used to test the bispecific antibodies' binding to human CEA and human CD3 epsilon/delta antigen. The steps are as follows: the antigen human CD3ε/δ (ACRO systems, CDD-H52W1) and the recombinant tumor antigen human CEA (CEACAM-5/CD66e, ACRO systems, CE5-H5226) were diluted to 1 μg/ml with PBS, and then added to the 96-well plate at 100 μl per well. The wells were coated overnight at 4° C. After washing 3 times with 0.05% PBST, 200 μl 5% skimmed milk powder was added to each well and incubated at 37° C. for 2 h. After washing 3 times with 0.05% PBST, 100 μl primary antibody sample (10 μg/ml) was added to each well, and incubated at 37° C. for 2 h. After washing 3 times with 0.05% PBST, 100 μl (1:6000) diluted secondary antibody goat anti-human Fc-HRP (sigma, A2170) was added to each well, incubated at room temperature for 1 h. After washing 8 times with 0.05% PBST, 50 μl TMB color developing solution was added to each well, and incubated at room temperature for 10-15 min. 50 μl 1 mM HCl was added to each well to stop the color development. 450 nm Absorbance (OD) was read.
(§3) The binding of antibodies to antigen was calculated according to the following formula: Binding (%)=[(ODdayn−ODb)/(ODday0−ODb)]×100%. ODdayn: experimental well (the protein was stored in the serum for n days); ODday0: control well (the protein was not stored in the serum); ODb: blank well (no primary antibody added).
The target is the same in assay [3]. Briefly: serum-stability ELISA, Day 9 vs Day 0. For orientation: An ELISA detects its analyte on a solid surface through an enzyme-linked reagent.
Experimental: as §1, §2, §3
Assay [4] shares this target. The assay is described as follows: serum-stability ELISA, Day 0 (reference).
Experimental: as §1, §2, §3
For assay [5] the target is unchanged. Briefly: serum-stability ELISA, Day 10 vs Day 0.
Experimental: as §1, §2, §3
For assay [6] the target is unchanged. The assay is described as follows: serum-stability ELISA, Day 7 vs Day 0.
Experimental: as §1, §2, §3
The target is the same in assay [7]. Briefly: serum-stability ELISA, Day 5 vs Day 0.
Experimental: as §1, §2, §3
The target is the same in assay [8]. Briefly: serum-stability ELISA, Day 6 vs Day 0.
For assay [9] the target is unchanged. The assay is described as follows: serum-stability ELISA, Day 2 vs Day 0.
Experimental: as §1, §2, §3
Assay [10] concerns the target T2, human CD3 on Jurkat cells (human, UniProt P07766 23-207; P04234 22-171; P09693 23-182).
T2 construct: whole, on cells; CD3 complex as on Jurkat (Clone E6-1) cells; also called CD3 expressing cells (Jurkat)
The assay is described as follows: FACS, Jurkat cells.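 Further: flow cytometric binding of bispecific antibodies to Jurkat T cells, threefold serial dilutions incubated half an hour in the cold, EC50 taken from the fitted binding curve.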 Background: In flow cytometry, cells or beads pass a laser one at a time.

Assay [11] concerns the target T3, human CD3ε/δ (ACRO systems, CDD-H52W1) (human, UniProt P07766 23-126; P04234 22-105).
T3 construct: Bought protein; also called human CD3ϵ/CD3δ; human CD3 epsilon/delta antigen
The assay is described as follows: BLI, antibody captured, antigen in solution.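 Further: bispecific antibodies captured on AHIC biosensors to a 1.5 nm loading signal, in PBST with 0.02% detergent.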
Experimental: The bispecific antibodies were diluted to 5 ag/ml, and 1.5 nm protein was coupled to the surface of the AHIC sensor chip through 0.02% PBST.

For orientation: Kd means the constant that tells how readily two partners part at equilibrium. A high value points to a looser complex. In general, koff refers to a measure of how fast the partners let go of each other. In general, kon refers to the rate constant with which the complex forms. Read a high kon as faster complex formation. The EC50 is the concentration that produces a half-maximal response. A low value points to greater potency.

Several values for one entry are separate records, joined by “and”; a condition that tells them apart may be missing. Equal values may be shown once.

B1: HER2-CD3 bispecific antibody 501 (bispecific antibody, human IgG4 S228P, kappa, F234A L235A)
heavy: EVKLLESGGGLVQPKGSLKLSCAASGFTFNTYAMNWVRQAPGKGLEWVARIRSKYNNYATYYADSVKDRFTISRDDSQSILYLQMNNLKTEDTAMYYCVRHGNFGNSYVSWFAYWGQGTLVTVSSASTKGPSVFPLAPCSRSTSESTAALGCLVKDYFPEPVTVSWNSGALTSGVHTFPAVLQSSGLYSLSSVVTVPSSSLGTKTYTCNVDHKPSNTKVDKRVESKYGPPCPPCPAPEAAGGPSVFLFPPKPKDTLMISRTPEVTCVVVDVSQEDPEVQFNWYVDGVEVHNAKTKPREEQFNSTYRVVSVLTVLHQDWLNGKEYKCKVSNKGLPSSIEKTISKAKGQPREPQVYTLPPCQEEMTKNQVSLWCLVKGFYPSDIAVEWESNGQPENNYKTTPPVLDSDGSFFLYSRLTVDKSRWQEGNVFSCSVMHEALHNHYTQKSLSLSL
chain: QVQLVQSGGGLVQAGGSLRLSCAASGRTFSSYAMAWFRQAPGKEREFVAAISWSGANIYVADSVKGRFTISRDNAKDTVYLQMNSLKPEDTAVYYCAVKLGFAPVEERQYDYWGQGTQVTVSSESKYGPPCPPCPAPEAAGGPSVFLFPPKPKDTLMISRTPEVTCVVVDVSQEDPEVQFNWYVDGVEVHNAKTKPREEQFNSTYRVVSVLTVLHQDWLNGKEYKCKVSNKGLPSSIEKTISKAKGQPREPQVCTLPPSQEEMTKNQVSLSCAVKGFYPSDIAVEWESNGQPENNYKTTPPVLDSDGSFFLVSRLTVDKSRWQEGNVFSCSVMHEALHNRFTQKSLSLSL
light: QAVVTQESALTTSPGETVTLTCRSSTGAVTTSNYANWVQEKPDHLFTGLIGGTNKRAPGVPARFSGSLIGDKAALTITGAQTEDEAIYFCALWYSNLWVFGGGTKVEIKRTVAAPSVFIFPPSDEQLKSGTASVVCLLNNFYPREAKVQWKVDNALQSGNSQESVTEQDSKDSTYSLSSTLTLSKADYEKHKVYACEVTHQGLSSPVTKSFNRGEC
notes: VHH-hole chain assembled from VHH and hole-Fc with hinge
As for B1, in assay [1], the Kd worked out at 3.14 nM, the off-rate constant (koff) was 0.000508 s⁻¹ and the on-rate constant (kon) amounted to 162000 M⁻¹ s⁻¹.

B2: 101 (Fab-Knob+CEA-Hole) (bispecific antibody, human IgG4 S228P, kappa, F234A L235A)
heavy: EVKLLESGGGLVQPKGSLKLSCAASGFTFNTYAMNWVRQAPGKGLEWVARIRSKYNNYATYYADSVKDRFTISRDDSQSILYLQMNNLKTEDTAMYYCVRHGNFGNSYVSWFAYWGQGTLVTVSSASTKGPSVFPLAPCSRSTSESTAALGCLVKDYFPEPVTVSWNSGALTSGVHTFPAVLQSSGLYSLSSVVTVPSSSLGTKTYTCNVDHKPSNTKVDKRVESKYGPPCPPCPAPEAAGGPSVFLFPPKPKDTLMISRTPEVTCVVVDVSQEDPEVQFNWYVDGVEVHNAKTKPREEQFNSTYRVVSVLTVLHQDWLNGKEYKCKVSNKGLPSSIEKTISKAKGQPREPQVYTLPPCQEEMTKNQVSLWCLVKGFYPSDIAVEWESNGQPENNYKTTPPVLDSDGSFFLYSRLTVDKSRWQEGNVFSCSVMHEALHNHYTQKSLSLSL
chain: EVQLVESGGGFVQAGESLTLSCTSSTLTFTPYRMAWYRQAPGKQRDLVADISSGDGRTTNYADFAKGRFTISRDNIKNTVFLRMTNLKPEDTAVYYCNTFVSFVGIARSWGQGTQVTVSSESKYGPPCPPCPAPEAAGGPSVFLFPPKPKDTLMISRTPEVTCVVVDVSQEDPEVQFNWYVDGVEVHNAKTKPREEQFNSTYRVVSVLTVLHQDWLNGKEYKCKVSNKGLPSSIEKTISKAKGQPREPQVCTLPPSQEEMTKNQVSLSCAVKGFYPSDIAVEWESNGQPENNYKTTPPVLDSDGSFFLVSRLTVDKSRWQEGNVFSCSVMHEALHNRFTQKSLSLSL
light: QAVVTQESALTTSPGETVTLTCRSSTGAVTTSNYANWVQEKPDHLFTGLIGGTNKRAPGVPARFSGSLIGDKAALTITGAQTEDEAIYFCALWYSNLWVFGGGTKVEIKRTVAAPSVFIFPPSDEQLKSGTASVVCLLNNFYPREAKVQWKVDNALQSGNSQESVTEQDSKDSTYSLSSTLTLSKADYEKHKVYACEVTHQGLSSPVTKSFNRGEC
notes: TA1 anti-CD3 Fab, C17 anti-CEA VHH, human IgG4 Fc knob-into-hole
In the case of B2, the Binding % in assay [2] was 98.5%; in assay [3], 102%; in [4], 100%; in assay [5] it was 101%; in assay [6], 100%; in assay [7] it was 99.2%. Also, the Binding % in assay [8] was determined as 103%; in assay [9], 101%.

B3: Knob+Fab-Hole-CEA (106) (bispecific antibody, human IgG4 S228P, kappa, F234A L235A)
chain: ESKYGPPCPPCPAPEAAGGPSVFLFPPKPKDTLMISRTPEVTCVVVDVSQEDPEVQFNWYVDGVEVHNAKTKPREEQFNSTYRVVSVLTVLHQDWLNGKEYKCKVSNKGLPSSIEKTISKAKGQPREPQVYTLPPCQEEMTKNQVSLWCLVKGFYPSDIAVEWESNGQPENNYKTTPPVLDSDGSFFLYSRLTVDKSRWQEGNVFSCSVMHEALHNHYTQKSLSLSL
heavy: EVKLLESGGGLVQPKGSLKLSCAASGFTFNTYAMNWVRQAPGKGLEWVARIRSKYNNYATYYADSVKDRFTISRDDSQSILYLQMNNLKTEDTAMYYCVRHGNFGNSYVSWFAYWGQGTLVTVSSASTKGPSVFPLAPCSRSTSESTAALGCLVKDYFPEPVTVSWNSGALTSGVHTFPAVLQSSGLYSLSSVVTVPSSSLGTKTYTCNVDHKPSNTKVDKRVESKYGPPCPPCPAPEAAGGPSVFLFPPKPKDTLMISRTPEVTCVVVDVSQEDPEVQFNWYVDGVEVHNAKTKPREEQFNSTYRVVSVLTVLHQDWLNGKEYKCKVSNKGLPSSIEKTISKAKGQPREPQVCTLPPSQEEMTKNQVSLSCAVKGFYPSDIAVEWESNGQPENNYKTTPPVLDSDGSFFLVSRLTVDKSRWQEGNVFSCSVMHEALHNRFTQKSLSLSLGGGGSGGGGSEVQLVESGGGFVQAGESLTLSCTSSTLTFTPYRMAWYRQAPGKQRDLVADISSGDGRTTNYADFAKGRFTISRDNIKNTVFLRMTNLKPEDTAVYYCNTFVSFVGIARSWGQGTQVTVSS
light: QAVVTQESALTTSPGETVTLTCRSSTGAVTTSNYANWVQEKPDHLFTGLIGGTNKRAPGVPARFSGSLIGDKAALTITGAQTEDEAIYFCALWYSNLWVFGGGTKVEIKRTVAAPSVFIFPPSDEQLKSGTASVVCLLNNFYPREAKVQWKVDNALQSGNSQESVTEQDSKDSTYSLSSTLTLSKADYEKHKVYACEVTHQGLSSPVTKSFNRGEC
notes: Anti-CD3 TA1 Fab + anti-CEA VHH C17 on human IgG4 knob-into-hole Fc
B3: the EC50 in assay [10] was 0.69 µg/mL and 5.31 nM. In addition, in [11], the Kd is 0.589 nM, the off-rate (koff) was 0.000215 s⁻¹ and the kon turned out to be 366000 M⁻¹ s⁻¹.

B4: HER2-CD3 bispecific antibody 504 (bispecific antibody, human IgG4 S228P, kappa, F234A L235A)
chain: QVQLVQSGGGLVQAGGSLRLSCAASGRTFSSYAMAWFRQAPGKEREFVAAISWSGANIYVADSVKGRFTISRDNAKDTVYLQMNSLKPEDTAVYYCAVKLGFAPVEERQYDYWGQGTQVTVSSESKYGPPCPPCPAPEAAGGPSVFLFPPKPKDTLMISRTPEVTCVVVDVSQEDPEVQFNWYVDGVEVHNAKTKPREEQFNSTYRVVSVLTVLHQDWLNGKEYKCKVSNKGLPSSIEKTISKAKGQPREPQVYTLPPCQEEMTKNQVSLWCLVKGFYPSDIAVEWESNGQPENNYKTTPPVLDSDGSFFLYSRLTVDKSRWQEGNVFSCSVMHEALHNHYTQKSLSLSL
heavy: EVKLLESGGGLVQPKGSLKLSCAASGFTFNTYAMNWVRQAPGKGLEWVARIRSKYNNYATYYADSVKDRFTISRDDSQSILYLQMNNLKTEDTAMYYCVRHGNFGNSYVSWFAYWGQGTLVTVSSASTKGPSVFPLAPCSRSTSESTAALGCLVKDYFPEPVTVSWNSGALTSGVHTFPAVLQSSGLYSLSSVVTVPSSSLGTKTYTCNVDHKPSNTKVDKRVESKYGPPCPPCPAPEAAGGPSVFLFPPKPKDTLMISRTPEVTCVVVDVSQEDPEVQFNWYVDGVEVHNAKTKPREEQFNSTYRVVSVLTVLHQDWLNGKEYKCKVSNKGLPSSIEKTISKAKGQPREPQVCTLPPSQEEMTKNQVSLSCAVKGFYPSDIAVEWESNGQPENNYKTTPPVLDSDGSFFLVSRLTVDKSRWQEGNVFSCSVMHEALHNRFTQKSLSLSL
light: QAVVTQESALTTSPGETVTLTCRSSTGAVTTSNYANWVQEKPDHLFTGLIGGTNKRAPGVPARFSGSLIGDKAALTITGAQTEDEAIYFCALWYSNLWVFGGGTKVEIKRTVAAPSVFIFPPSDEQLKSGTASVVCLLNNFYPREAKVQWKVDNALQSGNSQESVTEQDSKDSTYSLSSTLTLSKADYEKHKVYACEVTHQGLSSPVTKSFNRGEC
notes: VHH-knob chain assembled from VHH and knob-Fc with hinge
As for B4, in assay [1], binding was put at a Kd of 2.79 nM, the off-rate constant (koff) stood at 0.0005 s⁻¹ and the kon amounted to 179000 M⁻¹ s⁻¹.

(Values after patent US20240400715A1 (VIBRANT PHARMA, published 2024).)
